Experimental findings from IntAct's records for PubMed 18154663 are described below.

The labels stand for the following.
B1: RalBP1-associated Eps domain-containing protein 2 (Homo sapiens), Q8NFH8 (parent)
chain: MEAAAAAAAAAAAAAAAGGGCGSGPPPLLLSEGEQQCYSELFARCAGAAGGGPGSGPPEAARVAPGTATAAAGPVADLFRASQLPAETLHQITELCGAKRVGYFGPTQFYIALKLIAAAQSGLPVRIESIKCELPLPRFMMSKNDGEIRFGNPAELHGTKVQIPYLTTEKNSFKRMDDEDKQQETQSPTMSPLASPPSSPPHYQRVPLSHGYSKLRSSAEQMHPAPYEARQPLVQPEGSSSGGPGTKPLRHQASLIRSFSVERELQDNSSYPDEPWRITEEQREYYVNQFRSLQPDPSSFISGSVAKNFFTKSKLSIPELSYIWELSDADCDGALTLPEFCAAFHLIVARKNGYPLPEGLPPTLQPEYLQAAFPKPKWDCQLFDSYSESLPANQQPRDLNRMEKTSVKDMADLPVPNQDVTSDDKQALKSTINEALPKDVSEDPATPKDSNSLKARPRSRSYSSTSIEEAMKRGEDPPTPPPRPQKTHSRASSLDLNKVFQPSVPATKSGLLPPPPALPPRPCPSQSEQVSEAELLPQLSRAPSQAAESSPAKKDVLYSQPPSKPIRRKFRPENQATENQEPSTAASGPASAATMKPHPTVQKQSSKQKKAIQTAIRKNKEANAVLARLNSELQQQLKEVHQERIALENQLEQLRPVTVL
partner: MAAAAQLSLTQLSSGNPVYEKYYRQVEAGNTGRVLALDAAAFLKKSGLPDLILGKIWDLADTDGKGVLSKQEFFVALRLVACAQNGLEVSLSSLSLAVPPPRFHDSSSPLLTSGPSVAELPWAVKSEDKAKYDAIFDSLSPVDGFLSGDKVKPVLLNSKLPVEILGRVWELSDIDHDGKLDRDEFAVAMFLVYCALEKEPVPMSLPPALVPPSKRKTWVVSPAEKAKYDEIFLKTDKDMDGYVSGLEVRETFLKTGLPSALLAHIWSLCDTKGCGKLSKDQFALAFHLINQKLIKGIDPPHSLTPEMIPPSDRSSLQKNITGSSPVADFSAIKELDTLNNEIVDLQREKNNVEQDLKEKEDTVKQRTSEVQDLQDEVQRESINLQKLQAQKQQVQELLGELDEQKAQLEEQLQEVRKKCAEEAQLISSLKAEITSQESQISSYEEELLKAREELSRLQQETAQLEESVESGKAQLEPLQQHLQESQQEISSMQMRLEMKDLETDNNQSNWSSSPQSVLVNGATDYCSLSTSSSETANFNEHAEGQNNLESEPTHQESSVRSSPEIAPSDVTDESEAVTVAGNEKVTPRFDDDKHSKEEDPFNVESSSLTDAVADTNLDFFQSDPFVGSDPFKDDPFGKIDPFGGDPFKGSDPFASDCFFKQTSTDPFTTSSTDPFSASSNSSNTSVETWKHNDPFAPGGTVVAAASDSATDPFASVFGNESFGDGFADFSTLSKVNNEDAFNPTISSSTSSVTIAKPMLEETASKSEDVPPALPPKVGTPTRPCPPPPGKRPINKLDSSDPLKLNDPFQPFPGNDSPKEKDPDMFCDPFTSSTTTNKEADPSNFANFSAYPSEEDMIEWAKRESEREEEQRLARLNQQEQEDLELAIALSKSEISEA

Holding throughout (details): with eps15_mouse Eps15, P42567
The variants in assay [1] derive from B1.
Variants of B1 are the subject of assay [2]. The source holds these as a separate data set.
In assay [3] the parent is B1. The source holds these as a separate data set.
Variants of B1 are the subject of assay [4]. This is another data set of the same source.

For the variant K312A, the “effect of a mutation on the interaction” value is recorded as “decreasing interaction” in assay [1] and “disrupting interaction” in assay [2].
In the case of W324A, in assay [3], the “effect of a mutation on the interaction” value is given as “decreasing interaction”.
For K351A, the “effect of a mutation on the interaction” value in assay [4] was “decreasing interaction”; in assay [2], “disrupting interaction”.
